Measured values from article PMC7949043, “Allosteric regulation of the nickel-responsive NikR transcription factor from Helicobacter pylori”.
Where a chain is given by its changes, count along the chain named.

B1: ureA-F (32 bp ureA promoter) (dsDNA)
DNA 1: ATATAACACTAATTCATTTTAAATAATAATTA
DNA 2: TAATTATTATTTAAAATGAATTAGTGTTATAT
B2: ureA-perf-F (32 bp) (dsDNA)
DNA 1: B1 DNA 1 with A6T, C7T, C9T
DNA 2: B1 DNA 2 with G24A, G26A, T27A

What was measured:
[1] = biological target: T1, HpNikR (Helicobacter pylori G27 (strain from …, UniProt A1YSQ9 1-148)); experiment: fluorescence anisotropy; Ni(II) 1.2 eq per monomer; Hill n = 1.8 ± 0.1; FA: 5 nM labeled DNA, 20 mM Tris pH 7.6, 100 mM NaCl, 3 mM MgSO4, temperature not stated (metal loading at room temperature); 19F-NMR: same buffer with 10% D2O, 400-900 uM monomer, DNA 1 eq per tetramer, variable temperature from 4 C; details: protein: recombinant; tags: none; chain copies: 4; label: fluorescein at central T in the spacer of strand 1 (printed [F] after T14); blunt
T1 sequence: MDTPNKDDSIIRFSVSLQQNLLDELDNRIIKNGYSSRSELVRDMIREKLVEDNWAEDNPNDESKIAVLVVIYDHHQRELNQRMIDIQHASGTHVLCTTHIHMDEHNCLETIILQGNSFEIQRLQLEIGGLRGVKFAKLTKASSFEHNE

[2] = biological target: T1, HpNikR; experiment: fluorescence anisotropy; Ni(II) 1.2 eq per monomer; Hill n = 1.9 ± 0.2; FA: 5 nM labeled DNA, 20 mM Tris pH 7.6, 100 mM NaCl, 3 mM MgSO4, temperature not stated (metal loading at room temperature); 19F-NMR: same buffer with 10% D2O, 400-900 uM monomer, DNA 1 eq per tetramer, variable temperature from 4 C; details: protein: recombinant; tags: none; chain copies: 4; label: fluorescein at central T in the spacer of strand 1 (printed [F] after T14); blunt

Row | Binder | Kd [1] [nM] | Kd [2] [nM]
1 | B1 | 4.5 ± 0.6 | 
2 | B2 |  | 4.7 ± 0.4
